Test results reported in the RNAGym collection of RNA variant scans (doi:10.1093/nar/gkz1192).

B1: CPEB3 Ribozyme (parent)
chain: UAACAGGGGGCCACAGCAGAAGCGUUCACGUCGCAGCCCCUGUCAGAUUCUGGUGAAUCUGCGAAUUCUGCUGUAUAUCUC

Variants of: B1
Test: self-cleavage, relative activity (ratio to wild type); higher = more cleavage; in vitro, sequencing
Procedure, shortened: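 CPEB3 self-cleaving ribozyme mutant libraries were made by rounds of error-prone PCR, barcoded, and transcribed in vitro with T7 RNA polymerase for 5 hours at 37°C. Cleavage occurred during transcription and a 15 min DNase I step before EDTA stop. RNAs were reverse transcribed with template switching and Illumina-sequenced, with DNA sequencing mapping barcodes to variants. Relative activity is the variant's cleaved/total read fraction divided by wild type's (minimum 5 reads), averaged across three batches.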

Variant | self-cleavage
A64G U66C | 0.34
A64G U67A | 0.38
A64G U67C | 0.25
A64G U67G | 0.44
A64G U69A | 0.38
A64G U69C | 0.41
A64G U69G | 0.44
A64G U72A | 0.67
A64G U72C | 0.91
A64G U72G | 0.87
A64G U74A | 1.2
A64G U74C | 1.15
A64G U74G | 1.26
A64G U76A | 0.95
A64G U76C | 0.94
A64G U78A | 1.07
A64G U78C | 0.77
A64G U78G | 1.11
A64G U80A | 1.03
A64G U80C | 0.95
A64G U80G | 0.67
A64U | 0.32
A64U A65C | 0.13
A64U A65G | 0.25

Variant | self-cleavage
A64U A65U | 0.37
A64U A75C | 0.5
A64U A75G | 0.35
A64U A75U | 0.45
A64U A77G | 0.39
A64U A77U | 0.46
A64U C68A | 0.37
A64U C71A | 0.18
A64U C79A | 0.36
A64U C79U | 0.39
A64U C81A | 0.42
A64U G70A | 0.21
A64U G70C | 0.25
A64U G70U | 0.26
A64U G73A | 0.98
A64U G73C | 0.67
A64U U66A | 0.27
A64U U66C | 0.31
A64U U66G | 0.13
A64U U67A | 0.29
A64U U67C | 0.32
A64U U69A | 0.32
A64U U69C | 0.29
A64U U69G | 0.4

Variant | self-cleavage
A64U U72A | 0.35
A64U U72C | 0.5
A64U U72G | 0.37
A64U U74A | 0.51
A64U U74C | 0.6
A64U U76A | 0.32
A64U U76C | 0.4
A64U U76G | 0.24
A64U U78A | 0.49
A64U U78C | 0.31
A64U U78G | 0.35
A64U U80A | 0.37
A64U U80C | 0.45
A65C | 0.29
A65C A75G | 0.11
A65C A77G | 0.19
A65C C79G | 0.14
A65C C81A | 0.5
A65C U66C | 0.11
A65C U67C | 0.23
A65C U72A | 0.27
A65C U72C | 0.35
A65C U74C | 0.3
A65C U78C | 0.15

Variant | self-cleavage
A65C U80C | 0.53
A65G | 0.52
A65G A75G | 0.4
A65G A75U | 0.41
A65G A77C | 0.45
A65G A77G | 0.51
A65G A77U | 0.55
A65G C79A | 0.67
A65G C79G | 0.74
A65G C81A | 0.48
A65G C81U | 0.63
A65G G70A | 0.32
A65G G73A | 1.06
A65G G73C | 0.74
A65G G73U | 1.19
A65G U66A | 0.17
A65G U66C | 0.27
A65G U67A | 0.3
A65G U67C | 0.32
A65G U67G | 0.16
A65G U69A | 0.33
A65G U69C | 0.34
A65G U72A | 0.4
A65G U72C | 0.52

Variant | self-cleavage
A65G U72G | 0.4
A65G U74A | 0.86
A65G U74C | 0.79
A65G U74G | 0.89
A65G U76A | 0.48
A65G U76C | 0.53
A65G U76G | 0.53
A65G U78A | 0.6
A65G U78C | 0.42
A65G U78G | 0.44
A65G U80A | 0.53
A65G U80C | 0.59
A65G U80G | 0.66
A65U | 0.33
A65U A75G | 0.2
A65U A75U | 0.36
A65U A77G | 0.2
A65U A77U | 0.25
A65U C68A | 0.21
A65U C68U | 0.31
A65U C81A | 0.43
A65U G73A | 0.29
A65U G73U | 0.57
A65U U66C | 0.38

Variant | self-cleavage
A65U U67A | 0.02
A65U U67C | 0.28
A65U U69A | 0.3
A65U U69C | 0.45
A65U U72A | 0.23
A65U U72C | 0.36
A65U U72G | 0.33
A65U U74A | 0.44
A65U U76A | 0.19
A65U U76C | 0.24
A65U U78C | 0.18
A65U U80A | 0.15
A65U U80C | 0.38
A65U U80G | 0.21
U66A | 0.51
U66A A75U | 0.68
U66A A77G | 0.45
U66A A77U | 0.65
U66A G73A | 1.04
U66A U67A | 0.26
U66A U67C | 0.33
U66A U69A | 0.32
U66A U69C | 0.26
U66A U72A | 0.58

Variant | self-cleavage
U66A U72C | 0.59
U66A U74A | 0.85
U66A U74C | 0.86
U66A U74G | 0.59
U66A U76C | 0.57
U66A U78A | 0.38
U66A U78C | 0.31
U66A U80A | 0.49
U66A U80C | 0.5
U66A U80G | 0.64
U66C | 0.44
U66C A75C | 0.54
U66C A75G | 0.28
U66C A75U | 0.4
U66C A77G | 0.4
U66C A77U | 0.34
U66C C68U | 0.39
U66C C71A | 0.25
U66C C71U | 0.43
U66C C79A | 0.38
U66C C79U | 0.39
U66C C81A | 0.54
U66C C81U | 0.44
